The chains are these.
B1: Myeloid differentiation primary response protein MyD88 (Mus musculus), P22366 (parent)
chain: MSAGDPRVGSGSLDSFMFSIPLVALNVGVRRRLSLFLNPRTPVAADWTLLAEEMGFEYLEIRELETRPDPTRSLLDAWQGRSGASVGRLLELLALLDREDILKELKSRIEEDCQKYLGKQQNQESEKPLQVARVESSVPQTKELGGITTLDDPLGQTPELFDAFICYCPNDIEFVQEMIRQLEQTDYRLKLCVSDRDVLPGTCVWSIASELIEKRCRRMVVVVSDDYLQSKECDFQTKFALSLSPGVQQKRLIPIKYKAMKKDFPSILRFITICDYTNPCTKSWFWTRLAKALSLP
B2: TIR domain-containing adapter molecule 1 (Mus musculus), Q80UF7 (parent)
chain: MDNPGPSLRGAFGILGALERDRLTHLKHKLGSLCSGSQESKLLHAMVLLALGQDTEARVSLESLKMNTVAQLVAHQWADMETTEGPEEPPDLSWTVARLYHLLAEENLCPASTRDMAYQVALRDFASQGDHQLGQLQNEAWDRCSSDIKGDPSGFQPLHSHQGSLQPPSASPAVTRSQPRPIDTPDWSWGHTLHSTNSTASLASHLEISQSPTLAFLSSHHGTHGPSKLCNTPLDTQEPQLVPEGCQEPEEISWPPSVETSVSLGLPHEISVPEVSPEEASPILPDALAAPDTSVHCPIECTELSTNSRSPLTSTTESVGKQWPITSQRSPQVPVGDDSLQNTTSSSPPAQPPSLQASPKLPPSPLSSASSPSSYPAPPTSTSPVLDHSETSDQKFYNFVVIHARADEQVALRIREKLETLGVPDGATFCEEFQVPGRGELHCLQDAIDHSGFTILLLTASFDCSLSLHQINHALMNSLTQSGRQDCVIPLLPLECSQAQLSPDTTRLLHSIVWLDEHSPIFARKVANTFKTQKLQAQRVRWKKAQEARTLKEQSIQLEAERQNVAAISAAYTAYVHSYRAWQAEMNKLGVAFGKNLSLGTPTPSWPGCPQPIPSHPQGGTPVFPYSPQPPSFPQPPCFPQPPSFPQPPSFPLPPVSSPQSQSFPSASSPAPQTPGPQPLIIHHAQMVQLGVNNHMWGHTGAQSSDDKTECSENPCMGPLTDQGEPLLETPE

In the first experiment the parent is B1. As to conditions: with cblb_mouse Cblb.
Target sequence in this assay (Q3TTA7 whole entry): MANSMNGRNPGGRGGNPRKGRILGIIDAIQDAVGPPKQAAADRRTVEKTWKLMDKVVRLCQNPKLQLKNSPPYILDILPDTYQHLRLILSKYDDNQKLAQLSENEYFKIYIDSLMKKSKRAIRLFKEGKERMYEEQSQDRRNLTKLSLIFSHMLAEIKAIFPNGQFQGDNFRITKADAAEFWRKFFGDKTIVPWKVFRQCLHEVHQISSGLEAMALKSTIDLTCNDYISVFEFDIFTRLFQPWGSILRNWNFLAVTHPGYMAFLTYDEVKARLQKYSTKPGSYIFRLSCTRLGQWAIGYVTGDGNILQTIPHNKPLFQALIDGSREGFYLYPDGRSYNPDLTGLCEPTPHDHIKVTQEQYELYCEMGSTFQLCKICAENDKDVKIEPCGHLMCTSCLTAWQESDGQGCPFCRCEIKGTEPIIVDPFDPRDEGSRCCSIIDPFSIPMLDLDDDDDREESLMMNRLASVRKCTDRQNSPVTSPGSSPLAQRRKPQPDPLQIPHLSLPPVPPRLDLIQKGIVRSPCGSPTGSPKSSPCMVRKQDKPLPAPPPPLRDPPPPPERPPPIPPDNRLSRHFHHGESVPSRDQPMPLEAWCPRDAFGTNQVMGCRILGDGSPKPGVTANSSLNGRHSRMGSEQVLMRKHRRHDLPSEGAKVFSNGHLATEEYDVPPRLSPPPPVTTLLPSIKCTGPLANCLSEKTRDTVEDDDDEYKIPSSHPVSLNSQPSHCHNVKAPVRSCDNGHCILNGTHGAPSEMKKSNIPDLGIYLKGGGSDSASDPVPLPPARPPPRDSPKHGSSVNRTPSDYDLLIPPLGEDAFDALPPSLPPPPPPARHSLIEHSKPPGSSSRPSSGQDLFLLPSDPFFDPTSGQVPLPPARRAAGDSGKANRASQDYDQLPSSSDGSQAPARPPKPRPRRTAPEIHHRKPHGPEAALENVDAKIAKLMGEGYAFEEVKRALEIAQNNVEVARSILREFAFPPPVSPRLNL
Y227F: the “effect of a mutation on the interaction” value is recorded as “decreasing interaction”.

The variants in another experiment derive from B2. The following applies: with cblb_mouse Cblb.
Target sequence in this assay (Q3TTA7 whole entry): as above
Take Y375F: the “effect of a mutation on the interaction” value was “decreasing interaction”.

Source of the values: IntAct's records for PubMed 20639876.
